Experimental data as given in publication PMC2174006 (The Journal of Cell Biology, 2002).
No end group written: not given here.

Target: recombinant murine [32P]RIIα (murine, UniProt P12367 1-401, 32P-labelled)
Assay: peptide or protein array

Sequence of recombinant murine [32P]RIIα (P12367 whole entry): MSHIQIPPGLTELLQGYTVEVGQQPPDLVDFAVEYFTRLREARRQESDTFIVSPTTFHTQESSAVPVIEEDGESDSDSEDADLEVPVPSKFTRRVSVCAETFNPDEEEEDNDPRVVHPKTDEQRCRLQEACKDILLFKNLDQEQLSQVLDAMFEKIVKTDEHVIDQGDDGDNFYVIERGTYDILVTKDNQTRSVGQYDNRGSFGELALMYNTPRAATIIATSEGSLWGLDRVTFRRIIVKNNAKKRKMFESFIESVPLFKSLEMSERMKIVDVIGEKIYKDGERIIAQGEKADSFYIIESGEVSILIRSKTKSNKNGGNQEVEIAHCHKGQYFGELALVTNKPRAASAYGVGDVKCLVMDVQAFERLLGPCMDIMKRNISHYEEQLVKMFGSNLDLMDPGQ

## Ac-NINIEEAARFLVEKILVNHQ [Rab32 peptide 178–197]
  binding result: binds
